The target of the test is T1, Recombinant TGFbRII-Fc protein (R&D systems) (human, UniProt P37173 23-159).
T1 construct: Bought reagent; also called TGFβRII-Fc; TGFβRII-human Fc; not shown: Fc part; human Fc by the names 'TGFβRII-human Fc' / 'TGFbRII-hFc' and the anti-human capture kit; isotype and limits not
Briefly: SPR (Biacore 8K), TGFbRII-Fc captured by anti-human capture kit on CM5, VHH as analyte, 1:1 Langmuir fit, 25 °C. From the text:
The binding kinetics of these four dAbs for TGFβRII was then investigated using Biacore affinity analysis and the results are shown in Table 3 below.
Recombinant TGFbRII-Fc protein (R&D systems) was immobilised on individual flow cells on a Series S CM5 sensor chip (GE Healthcare) previously functionalised with anti-human capture kit, to a density of 150-200 RU using a Biacore 8K instrument. HBS-P⁺ buffer was used as running buffer is all experimental conditions. Recombinant purified VHH antibodies at known concentrations were used as the ‘analyte’ and injected over the respective flow cells with 150 s contact time and 600s dissociation at […] of flow rate with a constant temperature of 25° C. In each experiment, flow cell 1 was unmodified and used for reference subtraction. A ‘0 concentration’ sensorgram of buffer alone was used as a double reference subtraction to factor for drift. Data were fit to a 1:1 Langmuir binding model using local Rmax.

Broadly, the Kd is the concentration at which binding is half-saturated. The term koff denotes the first-order rate constant of dissociation. As a reminder, the kon is the rate constant with which the complex forms.

T1 sequence (P37173 23-159 limits assumed): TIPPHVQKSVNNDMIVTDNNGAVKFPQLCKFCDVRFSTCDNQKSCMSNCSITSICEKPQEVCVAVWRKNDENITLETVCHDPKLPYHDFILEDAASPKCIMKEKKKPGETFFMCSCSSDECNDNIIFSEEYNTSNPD

B1: anti-TGFβRII single domain antibody (dAb) clone H3 (VHH)
VHH: QVQLQQSGGGLVQAGGSLRLACAASGRSFSIYGITWFRQAPGKEREFVAAITGSGLTTNYADSVKGRFTISRDNAKNMVYLQLNSLKPDDTAVYYCAATRAYSGYYGENPTRYAYWGQGTQVTVS
notes: H3 is the one clone not 'related' to the other three; also called dAb H3; anti-TGFbRII VHH H3
Regarding B1, the Kd was found to be 67.2 nM, the koff is 0.119 s⁻¹ and the kon stood at 1.77e+06 M⁻¹ s⁻¹.

The record behind these values is patent US20210244762A1 (AUTOLUS, published 2021).
